This is an account of results in publication PMC5098251 (Scientific Reports, 2016).

B1: SNAP-E09_Y58S scFv-HA (scFv, V domains shown)
VH: QLQLQESGPGLVKPSETLSLTCTVSGASISANSYYGVWVRQSPGKGLEWVGSIAYRGNSNSGSTSYNPSLKSRATVSVDTSKNQVSLRLTSVTAADTALYYCARRQLLDDGTGYQWAAFDVWGQGTMVTVSS
VL: QSVLTQPPSVSEAPRQTVTISCSGNSFNIGRYPVNWYQQLPGKAPKLLIYYNNLRFSGVSDRFSGSKSGTSASLAIRDLLSEDEADYYCSTWDDTLKGWVFGGGTKVTVL
notes: whole scFv (VH, linker, VL) as in m3 (E09) with Y58S; not shown: SNAP-tag, N-terminal, kept; HA, C-terminal, kept
B2: SNAP-A07a scFv-HA (scFv, V domains shown)
VH: B1 VH with S25P, S65Y, S72G, V121N, G123D
VL: B1 VL with Y51S
notes: numbers count on: Kabat numbering; scFv linker, as in m6; On-bead form of m15; not shown: SNAP-tag, N-terminal, kept; HA, C-terminal, kept
B3: SNAP-Ep6b_B01 scFv-HA (scFv, V domains shown)
VH: B1 VH with S65Y, T80S
VL: B1 VL with F27S, Y51S, N52D, S60P, S71T, K97E
notes: numbers count on: Kabat numbering; scFv linker, as in m6; not shown: SNAP-tag, N-terminal, kept; HA, C-terminal, kept
B4: SNAP-E09 scFv-HA (scFv, V domains shown)
VH: B1 VH with S65Y
VL: B1 VL
notes: VH: as the VH of m6 (E09); scFv linker, as in m6; VL: as the VL of m6 (E09); 47 kDa fusion; The parent vector pIVEX-SNAP-GFP holds the R30I mutant of the SNAP-tag; also called SNAP-scFv-HA; parent; source: in vitro translated (PURExpress), captured on BG-DNA-coated streptavidin beads; not shown: SNAP-tag, N-terminal, kept; HA, C-terminal, kept
B5: SNAP-A01b scFv-HA (scFv, V domains shown)
VH: B1 VH with S25P, V39I, S65Y, Q84R, S131P
VL: B1 VL with A13V, Y51H
notes: numbers count on: Kabat numbering; scFv linker, as in m6; On-bead form of m10; not shown: SNAP-tag, N-terminal, kept; HA, C-terminal, kept
B6: SNAP-A11b scFv-HA (scFv, V domains shown)
VH: B1 VH with S25P, S65Y, S132G
VL: B1 VL with I29T, Y51S, F56L, K97E
notes: numbers count on: Kabat numbering; scFv linker, as in m6; On-bead form of m14; not shown: SNAP-tag, N-terminal, kept; HA, C-terminal, kept
B7: SNAP-A09a scFv-HA (scFv, V domains shown)
VH: B1 VH with S7P, V12T, S25P, N32D, S65Y
VL: B1 VL with Y51H
notes: numbers count on: Kabat numbering; scFv linker, as in m6; On-bead form of m13; not shown: SNAP-tag, N-terminal, kept; HA, C-terminal, kept
B8: SNAP-A03a scFv-HA (scFv, V domains shown)
VH: B1 VH with S25P, K45R, S65Y, Q106R, V121N, G123D
VL: B1 VL with P7S, I29T, Y51S, F56L, K97E
notes: numbers count on: Kabat numbering; scFv linker, as in m6; On-bead form of m11; not shown: SNAP-tag, N-terminal, kept; HA, C-terminal, kept
B9: E09 scFv with the single mutation VL Y50S (scFv, V domains shown)
VH: B1 VH with S65Y
VL: B1 VL with Y51S
notes: VH: as the VH of m6 (E09); scFv linker, as in m6; numbers count on: Kabat numbering; Made by site-directed mutagenesis of E09 in pCantab6
B10: E09 scFv with the single mutation VH S25P (scFv, V domains shown)
VH: B1 VH with S25P, S65Y
VL: B1 VL
notes: numbers count on: Kabat numbering; scFv linker, as in m6; VL: as the VL of m6 (E09); Made by site-directed mutagenesis of E09 in pCantab6
B11: Ep6b_B01 IgG (antibody, V domains shown)
VH: B1 VH with S65Y, T80S
VL: B1 VL with F27S, Y51S, N52D, S60P, S71T, K97E
notes: numbers count on: Kabat numbering; IgG heavy constant region; light constant region; IgG
B12: R4aS IgG (antibody, V domains shown)
VH: B1 VH with S25P, S65Y, V121N, G123D
VL: B1 VL with I29T, Y51S, F56L, K97E
notes: numbers count on: Kabat numbering; IgG heavy constant region; light constant region; IgG; also called antibody R4aS
B13: E09 IgG (antibody, V domains shown)
VH: B1 VH with S65Y
VL: B1 VL
notes: VH: as the VH of m6 (E09); IgG heavy constant region; VL: as the VL of m6 (E09); light constant region; IgG; also called parent
B14: A07a IgG (antibody, V domains shown)
VH: B1 VH with S25P, S65Y, S72G, V121N, G123D
VL: B1 VL with Y51S
notes: numbers count on: Kabat numbering; IgG heavy constant region; light constant region; IgG made from the scFv A07a
B15: A09a scFv (scFv, V domains shown)
VH: B1 VH with S7P, V12T, S25P, N32D, S65Y
VL: B1 VL with Y51H
notes: numbers count on: Kabat numbering; scFv linker, as in m6; Selected by BeSD, round IV
B16: A01b scFv (scFv, V domains shown)
VH: B1 VH with S25P, V39I, S65Y, Q84R, S131P
VL: B1 VL with A13V, Y51H
notes: as for B15
B17: A03a scFv (scFv, V domains shown)
VH: B1 VH with S25P, K45R, S65Y, Q106R, V121N, G123D
VL: B1 VL with P7S, I29T, Y51S, F56L, K97E
notes: as for B15
B18: A05a scFv (scFv, V domains shown)
VH: B1 VH with G8S, L20I, S25P, S65Y
VL: B1 VL with Y51H
notes: numbers count on: Kabat numbering; scFv linker, as in m6; Most abundant variant of round IV; the same as the Clade 2 consensus R4aH; also called R4aH
B19: anti-Fas receptor scFv E09 (scFv, V domains shown)
VH: B1 VH with S65Y
VL: B1 VL
notes: VH of E09; scFv linker; VL of E09; also called parent; wild-type E09
B20: Ep6b_B01 scFv (scFv, V domains shown)
VH: B1 VH with S65Y, T80S
VL: B1 VL with F27S, Y51S, N52D, S60P, S71T, K97E
notes: numbers count on: Kabat numbering; scFv linker, as in m6
B21: A11b scFv (scFv, V domains shown)
VH: B1 VH with S25P, S65Y, S132G
VL: B1 VL with I29T, Y51S, F56L, K97E
notes: as for B15
B22: A07a scFv (scFv, V domains shown)
VH: B1 VH with S25P, S65Y, S72G, V121N, G123D
VL: B1 VL with Y51S
B23: R4aS scFv (scFv, V domains shown)
VH: B1 VH with S25P, S65Y, V121N, G123D
VL: B1 VL with I29T, Y51S, F56L, K97E

Substitutions are numbered along the chain they refer to. Names and notes keep the numbering of the source.

T1 sequence (P25445 26-173): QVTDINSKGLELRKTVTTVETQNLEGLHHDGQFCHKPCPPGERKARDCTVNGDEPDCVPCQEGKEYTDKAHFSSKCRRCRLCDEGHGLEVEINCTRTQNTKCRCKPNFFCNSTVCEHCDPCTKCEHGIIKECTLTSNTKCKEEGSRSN
T2 sequence (P25445 26-335): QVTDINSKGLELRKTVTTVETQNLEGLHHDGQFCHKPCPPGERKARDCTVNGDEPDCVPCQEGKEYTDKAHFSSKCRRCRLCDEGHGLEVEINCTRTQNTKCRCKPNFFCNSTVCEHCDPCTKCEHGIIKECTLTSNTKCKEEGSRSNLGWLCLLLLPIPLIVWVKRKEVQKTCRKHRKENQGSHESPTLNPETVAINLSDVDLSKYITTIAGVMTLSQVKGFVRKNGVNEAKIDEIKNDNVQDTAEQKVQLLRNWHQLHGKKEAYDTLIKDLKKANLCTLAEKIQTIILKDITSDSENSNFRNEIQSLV

The first assay concerns the target T1, FasR-Fc (Fc-fused Fas receptor) (Homo sapiens, UniProt P25445).
T1 construct: Fas receptor (FasR, CD95), human; also called Fas-Fc; CD95; source: bought: R&D Systems
The assay can be described thus: on-bead binding assay read by flow cytometry (Bead Surface Display); SNAP-scFv-HA made by in vitro transcription/translation and held on streptavidin beads through BG-DNA anchors; beads incubated 1 h at room temperature with FasR-Fc (1 nM unless stated; 1, 10 and 30 nM in Fig. 2B), then with DyLight488-labelled goat anti-Fc; 1.5% marvel in PBS, washes with PBS and 0.05% Tween 20. The settings on record: one partner purified.
With B1, the binding result is listed as “binds”.
For the molecule B2, the “fold increase of MFS over E09” value was more than 2 fold.
On to B3, for which the “fold MFS over E09_Y58S (1 nM antigen)” value came out at 8.4 fold and the “fold MFS over E09_Y58S (30 nM antigen)” value is 1.8 fold.
Turning to B4, the “fold signal increase over the background (FasR at 1 nM)” value is more than 1250 fold.
B5: the “fold increase of MFS over E09” value was more than 2 fold.
Turning to B6, the “fold increase of MFS over E09” value is more than 2 fold.
In the case of B7, the “fold increase of MFS over E09” value is more than 2 fold.
Same read-out and setting: for B8 the value was more than 2 fold.

The next assay has as its target T2, recombinant human FasR (Homo sapiens, UniProt P25445).
T2 construct: Fas receptor (FasR, CD95), human, recombinant; The FasR of the BLI and SPR experiments; Details are in Supplementary Protocols 8-10; also called recombinant FasR
The experiment in a line: BLI; Octet Red384; recombinant human FasR; 1:1 Langmuir model; at least in duplicate; who was immobilised is not told (Supplementary Protocols 8-10). The following applies: both partners purified. In general terms: In BLI a coated tip is dipped into the sample, and binding shifts an interference pattern.
For B9, the “fold increase in affinity over the parent scFv E09 (Kd)” value was 4 fold.
Still for that read-out and setting: the value for B10 was 4 fold.

The target of a further assay is T2, recombinant human FasR. The assay can be described thus: SPR; BIAcore T100; low density IgG-coated chip surface, recombinant human FasR; 1:1 Langmuir model; at least in duplicate. The settings on record: both partners purified.
Take B11: the Kd was 0.06 nM, the koff came to 4.4e-05 s⁻¹ and the kon came to 746000 M⁻¹ s⁻¹.
The corresponding values for B12 are 0.14 nM, 3.8e-05 s⁻¹ and 282000 M⁻¹ s⁻¹.
For B13 the same measures were 13.7 nM, 0.00239 s⁻¹ and 174000 M⁻¹ s⁻¹.
Consider B14, for which the Kd came to 0.29 nM, the koff was determined as 6.7e-05 s⁻¹ and the kon turned out to be 230000 M⁻¹ s⁻¹.

Another assay addresses T1, FasR-Fc (Fc-fused Fas receptor). The experiment in a line: on-bead equilibrium titration read by flow cytometry (Bead Surface Display); apparent; Fas-Fc titrated against beads displaying SNAP-scFv-HA; normalised median fluorescence fitted to a saturation binding curve. The following applies: one partner purified.
For B4, the Kd was found to be 4.3 ± 0.3 nM.

A further assay concerns the target T2, recombinant human FasR. The assay can be described thus: BLI; Octet Red384; recombinant human FasR; 1:1 Langmuir model; at least in duplicate; who was immobilised is not told (Supplementary Protocols 8-10). The settings on record: both partners purified. This is another data set of the same source.
Regarding B15, the Kd is 2.63 nM, the dissociation rate constant (koff) worked out at 0.00029 s⁻¹ and the kon turned out to be 147000 M⁻¹ s⁻¹.
The corresponding values for B16 are 2.15 nM, 0.000272 s⁻¹ and 168000 M⁻¹ s⁻¹.
For B17 the same measures were 1.09 nM, 0.000181 s⁻¹ and 240000 M⁻¹ s⁻¹.
Turning to B11, the Kd was determined as 0.23 nM, the koff is 5.9e-05 s⁻¹ and the on-rate constant (kon) is 402000 M⁻¹ s⁻¹.
Turning to B12, the Kd worked out at 0.09 nM, the koff was found to be 1.2e-05 s⁻¹ and the kon is 249000 M⁻¹ s⁻¹.
As for B13, the Kd was 15.7 nM, the koff is 0.00266 s⁻¹ and the kon was found to be 236000 M⁻¹ s⁻¹.
For B14 the same measures were 1.02 nM, 0.000171 s⁻¹ and 277000 M⁻¹ s⁻¹.
The corresponding values for B18 are 2.89 nM, 0.00039 s⁻¹ and 153000 M⁻¹ s⁻¹.
Regarding B19, the Kd worked out at 7.6 nM, the off-rate constant (koff) turned out to be 0.000956 s⁻¹ and the kon is 236000 M⁻¹ s⁻¹.
The corresponding values for B20 are 0.71 nM, 0.000125 s⁻¹ and 214000 M⁻¹ s⁻¹.
Take B21: the Kd turned out to be 1.09 nM, the koff is 0.000111 s⁻¹ and the kon was 130000 M⁻¹ s⁻¹.

The next assay has as its target T2, recombinant human FasR. The description is as above.
Conditions: not given
For the molecule B22, the Kd is 0.4 nM, the koff was 5.6e-05 s⁻¹ and the kon stood at 162000 M⁻¹ s⁻¹.
For B23 the same measures were 0.38 nM, 4.5e-05 s⁻¹ and 117000 M⁻¹ s⁻¹.

A word on the koff: it is the rate constant with which the complex falls apart. As usually defined, the kon is a measure of how fast the partners come together.
